The record followed here is patent US9580508B2, “Bispecific EGFR/c-Met antibodies” (Janssen Biotech, Inc., priority 2012, dated 2017).

Entries after “also recorded” stand apart in the source; their conditions may differ. Where two headings read alike, the source gives them in different places.

The test system of data set [1] is H1975 cells. As to the kind of experiment: H1975 xenograft tumor efficacy. It counts as in vivo, nude mice. The settings on record: H1975 NSCLC, day 18, mAbs 10 mg/kg BIWx3wk, erlotinib 50, afatinib 15 mg/kg QDx21d.
Data set [2] relates to H1975 cells expressing human HGF. Kind of data set: H1975-HGF xenograft tumor efficacy. It counts as in vivo, nude mice. The settings on record: H1975-HGF NSCLC, day 16; mAbs 10 mg/kg BIWx3wk, erlotinib 50, afatinib 15 mg/kg QDx21d.
Data set [3] relates to NCI-H3255 cells. Kind of data set: cells. The settings on record: Homo sapiens, […] HGF.
Procedure: NCI-H3255 and HCC-827 cells were plated as described above in “Inhibition of Human Tumor Cell Growth or Viability by Antibodies”. […] Some wells were left untreated with either HGF or antibodies as controls. Cells were incubated at 37° C., 5% CO2 for 72 hours, then viable cells were detected using CellTiter-Glo® reagent (Promega), and data were analyzed as described above in “Inhibition of Human Tumor Cell Growth (NCI-H292 growth and NCI-H322 growth assay)”.
Data set [4] relates to H292-HGF human lung cancer xenograft. Kind of data set: H292-HGF human lung cancer xenograft: bispecific molecule versus other EGFR and c-Met inhibitors. The settings on record: mouse, in vivo.
Procedure: (§1) The H292-HGF cells were maintained in vitro in RPMI1640 medium supplemented with fetal bovine serum (10% v/v), and L-glutamine (2 mM) at 37° C. in an atmosphere of 5% CO2 in air. The cells were routinely subcultured twice weekly by trypsin-EDTA treatment. The cells growing in an exponential growth phase were harvested and counted for tumor inoculation.
(§2) Each mouse was inoculated subcutaneously at the right flank region with H292-HGF tumor cells (2×10^6) in 0.1 ml of PBS with Cultrex (1:1) for tumor development. The treatments were started when the mean tumor size reached 139 mm^3. […] The date of tumor cell inoculation was denoted as day 0.
(§3) Before commencement of treatment, all animals were weighed and the tumor volumes were measured. Since the tumor volume can affect the effectiveness of any given treatment, mice were assigned into groups using randomized block design based upon their tumor volumes. […] The randomized block design was used to assign experimental animals to groups. First, the experimental animals were divided into homogeneous blocks according to their initial tumor volume. Secondly, within each block, randomization of experimental animals to treatments was conducted.
(§4) At the time of routine monitoring, the animals were checked for any effects of tumor growth and treatments on normal behavior, such as mobility, visual estimation of food and water consumption, body weight gain/loss (body weights were measured twice weekly), eye/hair matting and any other abnormal effect.
(§5) The endpoint was whether tumor growth can be delayed or tumor bearing mice can be cured. Tumor size was measured twice weekly in two dimensions using a caliper, and the volume was expressed in mm^3 using the formula: V=0.5 a×b^2 where a and b are the long and short diameters of the tumor, respectively. The tumor size was then used for calculations of both T-C and T/C values. T-C was calculated with T as the time (in days) required for the mean tumor size of the treatment group to reach 1000 mm^3, and C was the time (in days) for the mean tumor size of the control group to reach the same size. The T/C value (in percent) was an indication of antitumor efficacy; T and C were the mean tumor volume of the treated and control groups, respectively, on a given day. Complete tumor regression (CR) is defined as tumors that are reduced to below the limit of palpation (62.5 mm^3) Partial tumor regression (PR) is defined as tumors that are reduced from initial tumor volume. A minimum duration of CR or PR in 3 or more successive tumor measurements is required for a CP or PR to be considered durable.
(§6) Animals for which the body weight loss exceeded 20%, or for which the mean tumor size of the group exceeds 2000 mm^3 were euthanized. The study was terminated after two weeks of observation after the final dose.
(§7) Statistical analyses of difference in tumor volume among the groups were evaluated using a one-way ANOVA followed by individual comparisons using Games-Howell (equal variance not assumed). All data were analyzed using SPSS 18.0. p<0.05 was considered to be statistically significant.
The test system is the same in data set [5].
Procedure: as §1, §2, §3, §4, §5, §6, §7
Data set [6] concerns the target T1, EGFR (Homo sapiens, UniProt P00533).
T1 construct: endogenous in cells; host or cells: NCI-H441
As to the kind of experiment: Inhibition of EGFR phosphorylation in NCI-H441 cells. It counts as cell-based. On the procedure:
NCI-H292, NCI-H441, or NCI-H596 cells were plated in 96 well plates in RPMI medium containing 10% FBS. 24 hours later, medium was replaced with serum free RPMI. […] Cells were treated for 1 h with the monospecific or bispecific molecules and then stimulated with EGF, HGF, or a combination of EGF and HGF for 15 minutes at 37° C., 5% CO2. Cells were lysed with MSD Lysis Buffer and cell signaling was assessed using appropriate MSD Assay plates, according to manufacturer's instructions, as described above.

Data set [7] relates to NCI-H292 cells expressing human HGF. As to the kind of experiment: H292-HGF xenograft tumor efficacy with four bispecific FN3 molecules. The class given is in vivo, SCID Beige mice. The settings on record: 25 mg/kg three times per week. On the procedure:
One week after implantation, mice were stratified into groups with equivalent tumor volumes (mean tumor volume=77.9+/−1.7 mm^3) Mice were dosed three times per week with the bispecific molecules and tumor volumes were recorded twice weekly.

For data set [8] the following is noted: mouse, in vivo, ip.
Procedure: SCID Beige mice were subcutaneously inoculated with NCI-H292 cells expressing human HGF (2.0×10^6 cells in Cultrex (Trevigen) in a volume of 200 μL) on the dorsal flank of each animal. Tumor measurements were taken twice weekly until tumor volumes ranged between 150-250 mm^3. Mice were then given a single i.p. dose of bispecific EGFR/c-Met molecules (linked to an albumin binding domain to increase half-life) or PBS vehicle. At 6 h or 72 h after dosing, tumors were extracted and immediately frozen in liquid nitrogen. […] Tumors were weighed, cut into small pieces, and lysed in Lysing Matrix A tubes (LMA) containing RIPA buffer with HALT protease/phosphatase inhibitors (Pierce), 50 mM sodium fluoride (Sigma), 2 mM activated sodium orthovanadate (Sigma), and 1 mM PMSF (MesoScale Discovery). Lysates were removed from LMA matrix and centrifuged to remove insoluble protein. The soluble tumor protein was quantified with a BCA protein assay and diluted to equivalent protein levels in tumor lysis buffer. Phosphorylated c-Met, EGFR and ERK were measured using assay plates from MesoScale Discovery (according to Manufacturer's protocol and as described above).

On to `CN(C)C/C=C/C(=O)Nc1cc2c(Nc3ccc(F)c(Cl)c3)ncnc2cc1O[C@H]1CCOC1` [afatinib], for which the “% TGI (day of study); compared to PBS vehicle” value in data set [1] is 57 (18) %; in data set [1] (listed as Afatinib), 57%; in data set [2] it was 29 (16) %.
The term IC50 denotes the concentration that gives 50% inhibition. On to `C#Cc1cccc(Nc2ncnc3cc(OCCOC)c(OCCOC)cc23)c1` [erlotinib], for which the “% TGI (day of study); compared to PBS vehicle” value in data set [1] is listed as 9 (18) %; in data set [2], 20 (16) %. The IC50 in data set [3] (NCI-H3255, NCI-H3255, low attachment culture) came to 47.1 nM; in data set [3] (NCI-H3255, NCI-H3255, standard 2D culture), 122 nM. The “Tolerability / body weight loss” value in data set [4] is “More severe body weight loss”.
Regarding `C[C@@H](Oc1cc(-c2cnn(C3CCNCC3)c2)cnc1N)c1c(Cl)ccc(F)c1Cl` [crizotinib, reference compound], the “Tumor volume (mm^3)” value in data set [5] (day 7 (start of treatment)) amounted to 140 ± 9 mm^3. The “Antitumor activity / response” value in data set [5] (mouse, in vivo) was “no antitumor activity”. Also, the “T − C (days) at 1000 mm^3” value in data set [5] (tumor growth delay vs vehicle) is -1 days. Besides, the “Tolerability / body weight loss” value in data set [4] is recorded as “More severe body weight loss”.

B1: ECB5: bispecific FN3: P53A1R5-17v2-(GGGGS)4-P114AR7P94-A3, SEQ ID NO: 54 (protein)
chain: MLPAPKNLVVSEVTEDSARLSWADPHGFYDSFLIQYQESEKVGEAIVLTVPGSERSYDLTGLKPGTEYTVSIYGVHNVYKDTNMRGLPLSAIFTTGGGGSGGGGSGGGGSGGGGSMLPAPKNLVVSRVTEDSARLSWTAPDAAFDSFWIRYFEFLGSGEAIVLTVPGSERSYDLTGLKPGTEYVVNIMGVKGGKISPPLSAIFTT
modifications: bispecific EGFR/cMet binding molecule
In the case of B1, in data set [6], the “Fold decrease of IC50 for inhibition of EGFR phosphorylation, bispecific vs monospecific EGFR-binding FN3 domain” value is reported as 30 fold.

B2: ECB39: bispecific FN3 with albumin binding domain: P53A1R5-17v2/P114AR7P94-A3, SEQ ID NO: 121 (protein)
chain: MLPAPKNLVVSEVTEDSARLSWADPHGFYDSFLIQYQESEKVGEAIVLTVPGSERSYDLTGLKPGTEYTVSIYGVHNVYKDTNMRGLPLSAIFTTAPAPAPAPAPLPAPKNLVVSRVTEDSARLSWTAPDAAFDSFWIRYFEFLGSGEAIVLTVPGSERSYDLTGLKPGTEYVVNIMGVKGGKISPPLSAIFTTAPAPAPAPAPLAEAKVLANRELDKYGVSDYYKNLINNAKTVEGVKALLDEILAALP
modifications: Bispecific EGFR/c-Met binding molecule
As to B2, in data set [7], the “Tumor growth inhibition” value is on record as “showed the most efficacy”. Also, the Tumor accumulation result in data set [8] is on record as “significantly more tumor accumulation at 6 hours relative to the other molecules”.

B3: ECB38: bispecific FN3 with albumin binding domain: P54AR4-83v2/P114AR7P94-A3, SEQ ID NO: 120 (protein)
chain: MLPAPKNLVVSEVTEDSARLSWDDPWAFYESFLIQYQESEKVGEAIVLTVPGSERSYDLTGLKPGTEYTVSIYGVHNVYKDTNMRGLPLSAIFTTAPAPAPAPAPLPAPKNLVVSRVTEDSARLSWTAPDAAFDSFWIRYFEFLGSGEAIVLTVPGSERSYDLTGLKPGTEYVVNIMGVKGGKISPPLSAIFTTAPAPAPAPAPLAEAKVLANRELDKYGVSDYYKNLINNAKTVEGVKALLDEILAALP
modifications: Bispecific EGFR/c-Met binding molecule
In the case of B3, in data set [7], the “Tumor growth inhibition” value was “showed the most efficacy”. Also, the “Mice in which the treatment was tolerated” value in data set [5] (25 mg/kg, 3 times/week×3 weeks) is recorded as 7 out of 10. Further, the “Tumor volume (mm^3)” value in data set [5] (day 7 (start of treatment)) came to 137 ± 7 mm^3; in data set [5] (day 9), 142 ± 7 mm^3; in data set [5] (day 13), 83 ± 6 mm^3; in data set [5] (day 16) it was 44 ± 7 mm^3; in data set [5] (day 20), 30 ± 6 mm^3; in data set [5] (day 27) it was 21 ± 5 mm^3. Further, in data set [5] (day 30), the “Tumor volume (mm^3)” value turned out to be 23 ± 6 mm^3. Besides, the “Tolerability / body weight loss” value in data set [5] (mouse, in vivo) was “Slight toxicity”. Besides, the “Antitumor activity / response” value in data set [5] (mouse, in vivo, listed as bispecific EGFR/c-Met molecule) was “complete tumor regression (CR) in all mice; also recorded: complete response”.
